Patent US20240384250A1, “FIBROBLAST GROWTH FACTOR 23 MODULATING COMPOUNDS” (THE UAB RESEARCH FOUNDATION, priority 2021, published 2024)

Legend:
[1] = test system: phosphorylated ERK in HEK293T cells; assay: ERK phosphorylation in serum-starved HEK293 cells (Western blotting); format: cell-based, human; details: FGF 1.1 nM for 10 minutes, absence of sKL
Method: The sample (20 μl) was loaded onto Mini-PROTEAN TGX Precast Gel 4-20% for experiments with <9 samples (4568094, Bio-Rad) or Criterion TGX Precast Gel 4-20% (5678094, Bio-Rad) for experiments with >9 samples. Gels were run in 1× Tris/Glycine/SDS buffer (1610732, Bio-Rad) at 150 V and stopped when the sample dye reached the end of the gel. Gels were removed and electrotransferred via a semi-dry cassette (1703940, Bio-Rad) in I× Tris/Glycine buffer (1610734, Bio-Rad) with 20% methanol. Gels were transferred onto polyvinylidene diflouride membranes (IPVH00010, Millipore) at 20 V for 1 hour. Membranes were then blocked in 5% dried milk with 0.5% Tween 20 diluted in Tris-buffered saline (TBST; pH 7.5) for 1 hour and probed with antibodies against specific antigens at 1:1000 in TBST with 5% dried milk. Blots were washed 3× for 5 minutes in TBST and probed with HRP-coupled secondary antibodies against specific species at 1:10,000 in TBST with 5% dried milk. Membranes were imaged on the SRX-101A X-ray film developer (Konica Minolta).
To determine the cellular activity of paracrine FGFs, the activation/phosphorylation of ERK in HEK293 cells after treatment was studied. HEK293 cells were seeded in 6-well plates in DMEM (26140079, Gibco) supplemented with I× Pen/Strep (15140122, Gibco) and 10% FBS (26140079, Gibco) and grown for 48 hours. Upon reaching 80% confluence, cells were serum starved overnight in DMEM and 1× Pen/Strep without FBS. The medium was changed, and cells were treated with sKL at 2 μg/ml or vehicle (sKL elution buffer: 25 mM Tris ph 8.0, 500 mM NaCl) for 15 minutes. Cells were then treated with various FGFs at 1.1 nM for 10 minutes. Cells were lysed in 200 μl of RIPA with the addition of a protease inhibitor (11836153001, Roche) and phosphatase inhibitors (P5726 and P0044, Sigma-Aldrich) for 30 minutes. The mixture was then centrifuged at 20,000 g for 60 minutes to remove all cell debris. One hundred microliters of 1× Laemmli sample buffer (1610737, Bio-Rad) with 1.42 M 2-mercaptoethanol was added, and samples were boiled for 5 minutes. Twenty microliters of samples was loaded onto 12% SDS-PAGE gels and analyzed using Western blotting for total and phosphorylated ERK.

FGF23 = biological target: T1, FGF23 (Homo sapiens, UniProt Q9GZV9); assay: Plate-based binding assay, FGF23 coated, FLAG-sKL detected with anti-FLAG HRP; details: 100 ng FGF23 coated
T1 construct: purchased R&D Systems 2604FG025/CF (human) or 2629FG025/CF (mouse)
T1 sequence (Q9GZV9 25-251): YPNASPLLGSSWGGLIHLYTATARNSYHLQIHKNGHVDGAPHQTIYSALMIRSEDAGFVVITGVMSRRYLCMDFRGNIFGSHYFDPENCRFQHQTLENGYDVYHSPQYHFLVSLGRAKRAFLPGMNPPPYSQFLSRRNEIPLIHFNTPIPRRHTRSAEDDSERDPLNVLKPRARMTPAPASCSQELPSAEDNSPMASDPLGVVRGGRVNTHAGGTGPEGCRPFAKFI
Method: (§1) Proteins were coated on 96-well plates (MaxiSorp; 439454, Thermo Fisher Scientific), and proteins were added to wells in 100 μl of enzyme-linked immunosorbent assay (ELISA) coating buffer (E107, Bethyl Laboratories) with a lid placed overtop and incubated at 4° C. overnight. Plates were washed 5× with 350 μl of assay buffer (50 mM Tris [pH 7.4], 200 mM NaCl, 0.01% Tween 20) on a 50 TS microplate washer (BioTek). Plates were blocked for 1 hour in 200 μl of assay buffer with 0.5% BSA. Plates were washed as before, and proteins were incubated on plates in 100 μl of assay buffer with 0.5% BSA. Proteins or heparin was incubated in orders described in the respective figure legends. Assays using FLAG-tag-based detection were incubated with anti-FLAG coupled to HRP at 1:20,000, and assays using Fc detection were incubated with anti-human Fc coupled to HRP at 1:10,000. Plates were washed as above, and 100 μl of 3,3′,5,5′-tetramethylbenzidine (TMB) substrate (E102, Bethyl Laboratories) was added for 15 to 20 minutes until positive wells developed a dark blue color. Reactions were stopped with ELISA stop solution (E115, Bethyl Laboratories) and analyzed using the Synergy HI plate reader (BioTek) at 450 nm wavelength. […] As a control to remove background absorbance values, wells were coated with an equal amount of BSA to match the amount of protein coated in experimental wells and treated the same as experimental wells. To study the effects of sKL on the binding between paracrine FGFs and FGFRs, plates were run as above except coated with paracrine FGFs. Fc-FGFR1 was preincubated with sKL or vehicle for 60 minutes, and then the combination was added to wells and the assay was run as before.

FGFR1c = biological target: T2, FGFR1c (Homo sapiens, UniProt P11362); assay: Plate-based binding assay, FGFR1c coated, FLAG-sKL detected with anti-FLAG HRP; details: purified protein
T2 construct: Fc-coupled FGFR ectodomains were immobilized on protein A/G beads; purchased R&D Systems 658FR050
T2 sequence (P11362 22-376 limits assumed): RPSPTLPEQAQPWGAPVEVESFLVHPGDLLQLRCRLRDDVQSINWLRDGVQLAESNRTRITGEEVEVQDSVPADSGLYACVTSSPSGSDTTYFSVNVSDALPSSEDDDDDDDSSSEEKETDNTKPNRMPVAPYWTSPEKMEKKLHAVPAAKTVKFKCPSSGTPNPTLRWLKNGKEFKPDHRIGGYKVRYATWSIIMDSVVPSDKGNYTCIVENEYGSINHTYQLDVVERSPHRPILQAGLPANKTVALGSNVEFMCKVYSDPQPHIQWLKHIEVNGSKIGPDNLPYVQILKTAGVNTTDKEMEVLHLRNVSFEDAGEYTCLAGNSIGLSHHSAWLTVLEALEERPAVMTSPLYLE
Method: as §1

FGF23 and FGFR1c = assay: sKL detection assay (FGF23 coated, Fc-FGFR1c detection); format: binding; details: lysates of stably transfected HEK293T cells
Method: Commercially available ELISA plates (Maxisorp) are coated with 5 μg/ml of recombinant FGF23 protein (R&D Systems) and unspecific binding sites are blocked with BSA/Tween20. Wells are incubated with sKL in solution (which can be plasma, serum or cell culture supernatants) for one hour, washed and incubated for one hour with 750 ng/ml of recombinant FGFR1α(IIIc)-Fc (R&D Systems), which is a chimeric protein consisting of the FGFR1 ectodomain and the Fc region of a human IgG. FGFR1 only binds to FGF23 in the presence of sKL, and the formation of this trimeric sandwich complex is then measured by detecting the presence of the Fc domain that is coupled to FGFR1. To do so, wells are washed and incubated with 400 ng/ml of anti-human IgG conjugated to horseradish peroxidase (HRP; Promega). Wells are washed and incubated with HRP substrate. After development for about 30 minutes, reactions are analyzed on a standard plate reader via absorptions at […]. Incubations with recombinant sKL dissolved in PBS at defined concentrations serve as standards that are used as reference values to determine sKL concentrations in the studied human samples. […]
HEK293 cells were plated in 10 cm dishes supplemented with 10% FBS (26140079, Gibco) and I× Pen/Strep (15140122, Gibco). Cells were transfected with appropriate klotho or green fluorescent protein cDNA constructs. After 2 days, clones were selected by using 1 μg/ml of puromycin (A1113803, Gibco). Cells were then split and plated in 10 cm dishes in DMEM supplemented with FBS and puromycin. After 48 hours, cells were lysed in 1 ml of RIPA buffer with the addition of a protease inhibitor (11873580001, Roche) for 30 minutes. The mixture was then centrifuged at 20,000 g for 1 hour to remove all cell debris. Activity assay was run as above in the sKL halflife study. Instead of serum, 20 μl of the indicated cell lysate was used and combined with 80 μl of activity assay buffer.

B1: FGF8b: recombinant human FGF8b from R&D Systems (protein)
chain: QVTVQSSPNFTQHVREQSLVTDQLSRRLIRTYQLYSRTSGKHVQVLANKRINAMAEDGDPFAKLIVETDTFGSRVRVRGAETGLYICMNKKGKLIAKSNGKGKDCVFTEIVLENNYTALQNAKYEGWYMAFTRKGRPRKGSKTRQHQREVHFMKRLPRGHHTTEQSLRFEFLNYPPFTRSLRGSQRTWAPEPR
ERK phosphorylation induced by FGF [1]: induced ERK phosphorylation

B2: sKL-N694Q: sKL variant with glycosylation site Asn694 substituted by Gln (protein)
chain: EPGDGAQTWARFSRPPAPEAAGLFQGTFPDGFLWAVGSAAYQTEGGWQQHGKGASIWDTFTHHPLAPPGDSRNASLPLGAPSPLQPATGDVASDSYNNVFRDTEALRELGVTHYRFSISWARVLPNGSAGVPNREGLRYYRRLLERLRELGVQPVVTLYHWDLPQRLQDAYGGWANRALADHFRDYAELCFRHFGGQVKYWITIDNPYVVAWHGYATGRLAPGIRGSPRLGYLVAHNLLLAHAKVWHLYNTSFRPTQGGQVSIALSSHWINPRRMTDHSIKECQKSLDFVLGWFAKPVFIDGDYPESMKNNLSSILPDFTESEKKFIKGTADFFALCFGPTLSFQLLDPHMKFRQLESPNLRQLLSWIDLEFNHPQIFIVENGWFVSGTTKRDDAKYMYYLKKFIMETLKAIKLDGVDVIGYTAWSLMDGFEWHRGYSIRRGLFYVDFLSQDKMLLPKSSALFYQKLIEKNGFPPLPENQPLEGTFPCDFAWGVVDNYIQVDTTLSQFTDLNVYLWDVHHSKRLIKVDGVVTKKRKSYCVDFAAIQPQIALLQEMHVTHFRFSLDWALILPLGNQSQVNHTILQYYRCMASELVRVNITPVVALWQPMAPNQGLPRLLARQGAWENPYTALAFAEYARLCFQELGHHVKLWITMNEPYTRQMTYSAGHNLLKAHALAWHVYNEKFRHAQNGKISIALQADWIEPACPFSQKDKEVAERVLEFDIGWLAEPIFGSGDYPWVMRDWLNQRNNFLLPYFTEDEKKLIQGTFDFLALSHYTTILVDSEKEDPIKYNDYLEVQEMTDITWLNSPSQVAVVPWGLRKVLNWLKFKYGDLPMYIISNGIDDGLHAEDDQLRVYYMQNYINEALKAHILDGINLCGYFAYSFNDRTAPRFGLYRYAADQFEPKASMKHYRKIIDSNGFPGPETLERFCPEEFTVCTECSFFHTRKS
modifications: left off: small tags and cut ends
notes: sKL variant with glycosylation site Asn694 substituted by Gln
FGF23 binding of sKL variants in HEK293 cell media compared with wildtype sKL (FGF23): increased FGF23 binding | binding affinity for FGFR1c compared with wildtype sKL (FGFR1c): does not affect

B3: BKL: full-length β-klotho in total lysates of stably transfected HEK293T cells (protein)
chain: MKTGCAAGSPGNEWIFFSSDERNTRSRKTMSNRALQRSAVLSAFVLLRAVTGFSGDGKAIWDKKQYVSPVNPSQLFLYDTFPKNFSWGVGTGAFQVEGSWKTDGRGPSIWDRYVYSHLRGVNGTDRSTDSYIFLEKDLLALDFLGVSFYQFSISWPRLFPNGTVAAVNAQGLRYYRALLDSLVLRNIEPIVTLYHWDLPLTLQEEYGGWKNATMIDLFNDYATYCFQTFGDRVKYWITIHNPYLVAWHGFGTGMHAPGEKGNLTAVYTVGHNLIKAHSKVWHNYDKNFRPHQKGWLSITLGSHWIEPNRTDNMEDVINCQHSMSSVLGWFANPIHGDGDYPEFMKTGAMIPEFSEAEKEEVRGTADFFAFSFGPNNFRPSNTVVKMGQNVSLNLRQVLNWIKLEYDDPQILISENGWFTDSYIKTEDTTAIYMMKNFLNQVLQAIKFDEIRVFGYTAWTLLDGFEWQDAYTTRRGLFYVDFNSEQKERKPKSSAHYYKQIIQDNGFPLKESTPDMKGRFPCDFSWGVTESVLKPEFTVSSPQFTDPHLYVWNVTGNRLLYRVEGVRLKTRPSQCTDYVSIKKRVEMLAKMKVTHYQFALDWTSILPTGNLSKVNRQVLRYYRCVVSEGLKLGVFPMVTLYHPTHSHLGLPLPLLSSGGWLNMNTAKAFQDYAELCFRELGDLVKLWITINEPNRLSDMYNRTSNDTYRAAHNLMIAHAQVWHLYDRQYRPVQHGAVSLSLHCDWAEPANPFVDSHWKAAERFLQFEIAWFADPLFKTGDYPSVMKEYIASKNQRGLSSSVLPRFTAKESRLVKGTVDFYALNHFTTRFVIHKQLNTNRSVADRDVQFLQDITRLSSPSRLAVTPWGVRKLLAWIRRNYRDRDIYITANGIDDLALEDDQIRKYYLEKYVQEALKAYLIDKVKIKGYYAFKLTEEKSKPRFGFFTSDFRAKSSVQFYSKLISSSGLPAENRSPACGQPAEDTDCTICSFLVEKKPLIFFGCCFISTLAVLLSITVFHHQKRRKFQKARNLQNIPLKKGHSRVFS
modifications: left off: small tags and cut ends
notes: full-length β-klotho in total lysates of stably transfected HEK293T cells
binding in the sKL detection assay, total cell lysates (FGF23 and FGFR1c): no measurable binding activity

B4: FGF5: recombinant human FGF5 from R&D Systems (protein)
chain: EKRLAPKGQPGPAATDRNPRGSSSRQSSSSAMSSSSASSSPAASLGSQGSGLEQSSFQWSPSGRRTGSLYCRVGIGFHLQIYPDGKVNGSHEANMLSVLEIFAVSQGIVGIRGVFSNKFLAMSKKGKLHASAKFTDDCKFRERFQENSYNTYASAIHRTEKTGREWYVALNKRGKAKRGCSPRVKPQHISTHFLPRFKQSEQPELSFTVTVPEKKKPPSPIKPKIPLSAPRKNTNSVKYRLKFRFG
ERK phosphorylation induced by FGF [1]: induced ERK phosphorylation
